From ChEMBL document CHEMBL1143079, “Designing better coumarin-based fluorogenic substrates for PTP1B” (Bioorg Med Chem Lett, 2008)

Tests used:
[1] = substrate: COC(=O)Cc1cc(=O)oc2cc(OP(=O)(O)O)ccc12
[2] = substrate: COC(=O)[C@H](Cc1ccc(OP(=O)(O)O)cc1)NC(=O)Cc1cc(=O)oc2cc(OP(=O)(O)O)ccc12
[3] = substrate: NC(=O)Cc1cc(=O)oc2cc(OP(=O)(O)O)ccc12
[4] = substrate: NC(=O)[C@H](Cc1ccc(OP(=O)(O)O)cc1)NC(=O)Cc1cc(=O)oc2cc(OP(=O)(O)O)ccc12
[5] = substrate: O=C(Cc1cc(=O)oc2cc(OP(=O)(O)O)ccc12)NCCc1ccc(O)cc1
[6] = substrate: O=C(Cc1cc(=O)oc2cc(OP(=O)(O)O)ccc12)NCCc1ccc(OP(=O)(O)O)cc1
[7] = substrate: O=C(Cc1cc(=O)oc2cc(OP(=O)(O)O)ccc12)NCc1ccc(OP(=O)(O)O)cc1
[8] = substrate: O=C(Cc1cc(=O)oc2cc(OP(=O)(O)O)ccc12)OCc1ccccc1
[9] = substrate: O=C(O)CCNC(=O)Cc1cc(=O)oc2cc(OP(=O)(O)O)ccc12

B1: Tyrosine-protein phosphatase non-receptor type 1 (Homo sapiens), P18031 (protein)
chain: MEMEKEFEQIDKSGSWAAIYQDIRHEASDFPCRVAKLPKNKNRNRYRDVSPFDHSRIKLHQEDNDYINASLIKMEEAQRSYILTQGPLPNTCGHFWEMVWEQKSRGVVMLNRVMEKGSLKCAQYWPQKEEKEMIFEDTNLKLTLISEDIKSYYTVRQLELENLTTQETREILHFHYTTWPDFGVPESPASFLNFLFKVRESGSLSPEHGPVVVHCSAGIGRSGTFCLADTCLLLMDKRKDPSSVDIKKVLLEMRKFRMGLIQTADQLRFSYLAVIEGAKFIMGDSSVQDQWKELSHEDLEPPPEHIPPPPRPPKRILEPHNGKCREFFPNHQWVKEETQEDKDCPIKEEKGSPLNAAPYGIESMSQDTEVRSRVVGGSLRGAQAASPAKGEPSLPEKDEDHALSYWKPFLVNMCVATVLTAGAYLCYRFLFNSNT
Km [1]: 147 µM
kcat [1]: 8.2 s⁻¹
Km [2]: 82 µM
kcat [2]: 3.4 s⁻¹
Km [3]: 224 µM
kcat [3]: 5 s⁻¹
Km [4]: 149 µM
kcat [4]: 3.2 s⁻¹
kcat [5]: 4.8 s⁻¹
Km [6]: 38 µM
kcat [6]: 7.1 s⁻¹
Km [7]: 25 µM
kcat [7]: 5.2 s⁻¹
Km [8]: 36 µM
kcat [8]: 10.5 s⁻¹
Km [9]: 111 µM
kcat [9]: 5.8 s⁻¹
